B1: RIPK4 (parent)
chain: VSVNAQTLDGRTPLHLAAQRGHYR
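Also: lentivirally expressed fusions sorted by FACS into six bins by GFP to DsRed ratio, PSI derived from sequencing read proportions per bin multiplied by bin number.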

The variants in this series derive from B1. Description: protein stability index of a GFP-peptide fusion (GPS, HEK-293T) (PSI 1-6); higher = more stable. Conditions: c terminus: a fixed tail appended.
On to VSVNAQTLDGRTPLHLAAQRQHYR, for which the protein stability index stood at 3.35.
Consider VSVNAQTLDGRTPLHLAAQRIHYR, for which the protein stability index came out at 2.24.
In the case of VSVNAQTLDGRTPLHLAAQRCHYR, the protein stability index worked out at 2.44.
VSVNAQTLDGRTPLHLAAQRFHYR: the protein stability index stood at 2.34.
Turning to VSVNAQTLDGRTPLHLAAQRDHYR, the protein stability index came out at 2.86.
For VSVNAQTLDGRTPLHLAAQRNHYR the value was 2.88; for VSVNAQTLDGRTPLHLAAQRWHYR, 2.05.
For VSVNAQTLDGRTPLHLAAQRVHYR the value was 2.93; for VSVNAQTLDGRTPLHLAAQRPHYR, 3.49.
In the case of VSVNAQTLDGRTPLHLAAQRTHYR, the protein stability index stood at 2.88.
The same measure for VSVNAQTLDGRTPLHLAAQRMHYR: 2.68; for VSVNAQTLDGRTPLHLAAQRGHYV: 2.43; for VSVNAQTLDGRTPLHLAAQRGHYF: 2.41.
For VSVNAQTLDGRTPLHLAAQRGHYW the value was 2.48; for VSVNAQTLDGRTPLHLAAQRGHYP, 3.08; for VSVNAQTLDGRTPLHLAAQRGHYM, 2.87.
For VSVNAQTLDGRTPLHLAAQRGHYI the value was 2.05; for VSVNAQTLDGRTPLHLAAQRGHYQ, 2.82.
Take VSVNAQTLDGRTPLHLAAQRGHYC: the protein stability index was 2.2.
In the case of VSVNAQTLDGRTPLHLAAQRGHYY, the protein stability index is 2.66.
For VSVNAQTLDGRTPLHLAAQRGHYS the value was 3.01.
The same measure for VSVNAQTLDGRTPLHLAAQRGHYE: 2.87.
For VSVNAQTLDGRTPLHLAAQRGHYA the value was 2.81; for VSVNAQTLDGRTPLHLAAQRGHYN, 2.98.
In the case of VSVNAQTLDGRTPLHLAAQRGHYT, the protein stability index came out at 2.99.
The same measure for VSVNAQTLDGRTPLHLAAQRGHYK: 3.11; for VSVNAQTLDGRTPLHLAAQRGHYL: 2.13; for VSVNAQTLDGRTPLHLAAQRGHYH: 2.69.
The same measure for VSVNAQTLDGRTPLHLAAQRGHYD: 3.3; for VSVNAQTLDGRTPLHLAAQRGHYG: 3.1; for VSVNAQTLDGRTPLHLAAQPGHYR: 2.95.
The same measure for VSVNAQTLDGRTPLHLAAQKGHYR: 3; for VSVNAQTLDGRTPLHLAAQHGHYR: 2.53.
As for VSVNAQTLDGRTPLHLAAQQGHYR, the protein stability index turned out to be 3.12.
For VSVNAQTLDGRTPLHLAAQTGHYR the value was 2.85; for VSVNAQTLDGRTPLHLAAQAGHYR, 3.02; for VSVNAQTLDGRTPLHLAAQIGHYR, 2.58.
For VSVNAQTLDGRTPLHLAAQDGHYR the value was 3.62; for VSVNAQTLDGRTPLHLAAQCGHYR, 2.69; for VSVNAQTLDGRTPLHLAAQWGHYR, 2.5.
For VSVNAQTLDGRTPLHLAAQYGHYR the value was 2.41; for VSVNAQTLDGRTPLHLAAQGGHYR, 2.96.
As for VSVNAQTLDGRTPLHLAAQVGHYR, the protein stability index stood at 2.85.
The same measure for VSVNAQTLDGRTPLHLAAQEGHYR: 3.43; for VSVNAQTLDGRTPLHLAAQNGHYR: 2.71.
For VSVNAQTLDGRTPLHLAAQFGHYR the value was 2.14.
The same measure for VSVNAQTLDGRTPLHLAAQLGHYR: 2.13; for VSVNAQTLDGRTPLHLAAQSGHYR: 2.65.
VSVNAQTLDGRTPLHLAAQMGHYR: the protein stability index worked out at 2.29.
For VSVNAQTLDGRTPLHLWAQRGHYR the value was 2.45; for VSVNAQTLDGRTPLHLYAQRGHYR, 2.54; for VSVNAQTLDGRTPLHLQAQRGHYR, 3.36.
The same measure for VSVNAQTLDGRTPLHLRAQRGHYR: 3.11; for VSVNAQTLDGRTPLHLTAQRGHYR: 3.45; for VSVNAQTLDGRTPLHLVAQRGHYR: 3.35.
Take VSVNAQTLDGRTPLHLSAQRGHYR: the protein stability index stood at 3.34.
For VSVNAQTLDGRTPLHLAAQRGHSR the value was 3.83; for VSVNAQTLDGRTPLHLAAQRGHVR, 4.
As for VSVNAQTLDGRTPLHLAAQRGHKR, the protein stability index was 4.12.
For VSVNAQTLDGRTPLHLAAQRGHLR the value was 3.51; for VSVNAQTLDGRTPLHLAAQRGHGR, 4.25.
For VSVNAQTLDGRTPLHLAAQRGHWR the value was 3.07; for VSVNAQTLDGRTPLHLAAQRGHIR, 3.39; for VSVNAQTLDGRTPLHLAAQRGHAR, 3.92.
For VSVNAQTLDGRTPLHLAAQRGHHR the value was 3.42; for VSVNAQTLDGRTPLHLAAQRGHQR, 3.96; for VSVNAQTLDGRTPLHLAAQRGHER, 4.39.
For VSVNAQTLDGRTPLHLAAQRGHRR, the protein stability index was determined as 4.19.
For VSVNAQTLDGRTPLHLAAQRGHCR the value was 3.43; for VSVNAQTLDGRTPLHLAAQRGHTR, 4.12.
For VSVNAQTLDGRTPLHLAAQRGHDR the value was 4.49; for VSVNAQTLDGRTPLHLAAQRGHPR, 4.11; for VSVNAQTLDGRTPLHLAAQRGHFR, 2.98.
Take VSVNAQTLDGRTPLHLAAQRGHNR: the protein stability index came to 4.17.
The same measure for VSVNAQTLDGRTPLHLAAQRGHMR: 4.03; for VSVNAQTLDGRTPLHLAAMRGHYR: 2.88; for VSVNAQTLDGRTPLHLAAFRGHYR: 1.94.
For the variant VSVNAQTLDGRTPLHLAAYRGHYR, the protein stability index was found to be 2.63.
The same measure for VSVNAQTLDGRTPLHLAATRGHYR: 3.58; for VSVNAQTLDGRTPLHLAADRGHYR: 3.12; for VSVNAQTLDGRTPLHLAAARGHYR: 3.44.
On to VSVNAQTLDGRTPLHLAAERGHYR, for which the protein stability index worked out at 3.18.
The same measure for VSVNAQTLDGRTPLHLAAWRGHYR: 2.12; for VSVNAQTLDGRTPLHLAAPRGHYR: 2.67.
The same measure for VSVNAQTLDGRTPLHLAAIRGHYR: 2.59; for VSVNAQTLDGRTPLHLAALRGHYR: 2.52.
The same measure for VSVNAQTLDGRTPLHLAASRGHYR: 3.08; for VSVNAQTLDGRTPLHLAAVRGHYR: 2.28; for VSVNAQTLDGRTPLHLAANRGHYR: 3.41.
As to VSVNAQTLDGRTPLHLAAGRGHYR, the protein stability index was 3.53.
With VSVNAQTLDGRTPLHLAARRGHYR, the protein stability index is 4.04.
For VSVNAQTLDGRTPLHLAAHRGHYR the value was 3.27; for VSVNAQTLDGRTPLHLAACRGHYR, 2.97.
For VSVNAQTLDGRTPLHLAAKRGHYR the value was 3.95.

Values taken from the supplement of paper PMC10567573.
